Measured values taken from US20120316071A1 (published 2012).
One block for each binder: values may come before it.

How the values were obtained:
[1] = molecular target: T1, rHuman Erythropoietin R/Fc Chimera, CF (R&D Systems Cat#963-ER) (human, UniProt P19235 25-250); test: MSD multispot ECL, antigen spotted on plate, Fab 352.5 nM; blank spot 494
T1 construct: Bought from R&D Systems; also called EPO R/Fc; Epo R/Fc chimera; not shown: Fc of the bought chimera
T1 sequence (looked up): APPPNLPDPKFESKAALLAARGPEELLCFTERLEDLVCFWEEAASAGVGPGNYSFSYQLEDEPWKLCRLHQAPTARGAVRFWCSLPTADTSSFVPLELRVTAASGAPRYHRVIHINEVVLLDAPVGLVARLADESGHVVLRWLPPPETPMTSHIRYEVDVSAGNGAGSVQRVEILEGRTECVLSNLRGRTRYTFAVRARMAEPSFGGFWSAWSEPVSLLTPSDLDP

[2] = molecular target: T2, Recombinant Human DLL4 (R&D Systems Cat#1506-D4/CF) (human, UniProt Q9NR61 27-524); test: as above
T2 construct: Bought from R&D Systems; also called rHuman DLL4; delta-like protein 4

[3] = molecular target: T3, rHuman ErbB2/Fc Chimera, CF (R&D Systems Cat#1129-ER) (human, UniProt P04626 23-652); test: as above
T3 construct: Bought from R&D Systems; also called human epidermal growth factor 2 receptor (ErbB2); not shown: Fc of the bought chimera

[4] = molecular target: T4, rHuman HGF R/c-MET/Fc Chimera, CF (R&D Systems Cat#358-MT/CF) (human, UniProt P08581 25-932); test: as above
T4 construct: Bought from R&D Systems; also called HGF R/Fc; hepatocyte growth factor receptor (HGF R/c-Met); not shown: Fc of the bought chimera

[5] = molecular target: T5, rHuman HGF R/c-MET/Fc Chimera, CF (R&D Systems Cat#358-MT/CF) (human, UniProt P08581 25-932); test: Multispot ECL (MSD) titration; antigen spotted on plate; Fab 392.5 nM; blank spot 338
T5 construct: Bought Fc chimera; also called HGF R/Fc; hepatocyte growth factor receptor; Fc part of the bought chimera not given

[6] = molecular target: T6, rHuman P-Cadherin/Fc Chimera, CF (R&D Systems Cat#861-PC) (human, UniProt P22223 108-654); test: as above
T6 construct: Bought Fc chimera; Fc part of the bought chimera not given

[7] = molecular target: T7, rHuman IGF-1 sR (IGF-1 sR), CF (R&D Systems Cat#391-GR) (human, UniProt P08069 31-932); test: as above
T7 construct: Bought soluble receptor; also called insulin-like growth factor-1 soluble receptor

[8] = molecular target: T8, rHuman Erythropoietin R/Fc Chimera, CF (R&D Systems Cat#963-ER) (human, UniProt P19235 25-250); test: as above
T8 construct: Bought Fc chimera; also called EPO R/Fc; EPO R; Fc part of the bought chimera not given
T8 sequence (looked up): T1 sequence (looked up)

[9] = molecular target: T9, rHuman CD44/Fc Chimera, CF (R&D Systems Cat#3660-CD) (human, UniProt P16070 21-220); test: as above
T9 construct: Bought Fc chimera; Fc part of the bought chimera not given

[10] = molecular target: T10, rHuman Notch-1/Fc Chimera, CF (R&D Systems Cat#3647-TK) (human, UniProt P46531 19-526); test: as above
T10 construct: Bought Fc chimera; Fc part of the bought chimera not given

[11] = molecular target: T11, rHuman ErbB2/Fc Chimera, CF (R&D Systems Cat#1129-ER) (human, UniProt P04626 23-652); test: as above
T11 construct: Bought Fc chimera; also called human epidermal growth factor 2 receptor; Fc part of the bought chimera not given

[12] = molecular target: T12, Recombinant Human DLL4 (R&D Systems Cat#1506-D4/CF) (human, UniProt Q9NR61 27-524); test: as above
T12 construct: Bought recombinant protein; also called delta-like protein 4; rHuman DLL4

[13] = molecular target: T13, rHuman CD44/Fc Chimera, CF (R&D Systems Cat#3660-CD) (human, UniProt P16070 21-220); test: MSD multispot ECL, antigen spotted on plate; Fab 0.51 uM; blank spot 1096
T13 construct: Bought recombinant protein; Fc part of the bought chimera not given

[14] = molecular target: T14, rHuman Erythropoietin R/Fc Chimera, CF (R&D Systems Cat#963-ER) (human, UniProt P19235 25-250); test: as above
T14 construct: Bought recombinant protein; also called EPO R/Fc; Epo R; Fc part of the bought chimera not given
T14 sequence (looked up): T1 sequence (looked up)

[15] = molecular target: T15, rHuman P-Cadherin/Fc Chimera, CF (R&D Systems Cat#861-PC) (human, UniProt P22223 108-654); test: as above
T15 construct: Bought recombinant protein; Fc part of the bought chimera not given

[16] = molecular target: T16, rHuman HGF R/c-MET/Fc Chimera, CF (R&D Systems Cat#358-MT/CF) (human, UniProt P08581 25-932); test: as above
T16 construct: Bought recombinant protein; also called HGF R/Fc; hepatocyte growth factor receptor; Fc part of the bought chimera not given

[17] = molecular target: T17, Recombinant Human DLL4 (R&D Systems Cat#1506-D4/CF) (human, UniProt Q9NR61 27-524); test: as above
T17 construct: Bought recombinant protein; also called delta-like protein 4; rHuman DLL4

[18] = molecular target: T18, rHuman Notch-1/Fc Chimera, CF (R&D Systems Cat#3647-TK) (human, UniProt P46531 19-526); test: as above
T18 construct: Bought recombinant protein; Fc part of the bought chimera not given

ECL signal [1]: 4100 | ECL signal [2]: 660 | ECL signal [3]: 514 | ECL signal [4]: 606
B1: Fab VH1-46_IGHD3-10*01_IGHJ4*01 & B3_IGKJ1*01 (Fab, V domains shown)
VH: QVQLVQSGAEVKKPGASVKVSCKASGYTFTSYYMHWVRQAPGQGLEWMGIINPSGGSTSYAQKFQGRVTMTRDTSTSTVYMELSSLRSEDTAVYYCAREYYYGSGSYYNDYFDYWGQGTLVTVSS
VL: not shown
notes: Tested as a Fab made in E. coli; VH was cloned into Plasmid A (CH1 constant region, His6 and Flag tags); The kappa VL was cloned into Plasmid C (kappa CL)

ECL signal [5]: 581 | ECL signal [6]: 459 | ECL signal [7]: 466 | ECL signal [8]: 5860 | ECL signal [9]: 498 | ECL signal [10]: 749 | ECL signal [11]: 539 | ECL signal [12]: 735
B2: Fab VH1-46_IGHD3-10*01_IGHJ4*01 & O1_IGKJ1*01 (Fab, V domains shown)
VH: B1 VH
VL: DIVMTQTPLSLPVTPGEPASISCRSSQSLLDSDDGNTYLDWYLQKPGQSPQLLIYTLSYRASGVPDRFSGSGSGTDFTLKISRVEAEDVGVYYCMQRIEFPSWTFGQGTKVEIKR
notes: Germline library Fab expressed in E. coli; VH was cloned into Plasmid A (CH1 constant region, His6 and Flag tags); The kappa VL was cloned into Plasmid C (kappa CL)

ECL signal [13]: 2010 | ECL signal [14]: 2620 | ECL signal [15]: 2390 | ECL signal [16]: 1990 | ECL signal [17]: 5180 | ECL signal [18]: 2770
B3: Fab VH4-34_IGHD7-27*01_IGHJ4*01 & L5_IGKJ1*01 (Fab, V domains shown)
VH: QVQLQQWGAGLLKPSETLSLTCAVYGGSFSGYYWSWIRQPPGKGLEWIGEINHSGSTNYNPSLKSRVTISVDTSKNQFSLKLSSVTAADTAVYYCARANWGDYFDYWGQGTLVTVSS
VL: DIQMTQSPSSVSASVGDRVTITCRASQGISSWLAWYQQKPGKAPKLLIYAASSLQSGVPSRFSGSGSGTDFTLTISSLQPEDFATYYCQQANSFPPWTFGQGTKVEIKR
notes: Germline library Fab expressed in E. coli; VH was cloned into Plasmid A, which adds CH1 with His6 and Flag tags
